From patent US12018068B2, “Anti-O1 antibodies and uses thereof” (priority 2016, dated 2024)

B1: 54H7: mouse hybridoma anti-O1 antigen antibody (Ms IgG3), VH SEQ ID NO:47, VL SEQ ID NO:48 (antibody, V domains shown)
VH: QVHLQQPGSELVRPGASVTLSCKASGYTFTNYWMQWVKQRPGQGLEWIGNIYPGSGNTNYDEKFRSKATLTVDTSSSTAYMHLTSLTSEDSAVYYCTRNWNFDYWGQGTTLTVSS
VL: DIQMTQSPSSLSASLGERVSLTCRASQDIGSSLNWLQQEPDGTIKRLIYATSSLDSGVPKRFSGSRSGSEYSLTISSLEAEDFVDYYCLQHTDSPYTFGGGTKLELK
modifications: 54H7 VH; 54H7 VL Amino Acid Sequence
B2: KPE33: human anti-K. pneumoniae O1 antigen antibody, VH SEQ ID NO:8, VL SEQ ID NO:9, isolated as IgG2 from donor #262 (antibody, V domains shown)
VH: EVQLVESGGALVQPGGSLRLSCAVSGFIFDDYAIHWVRRAPGKGLEWVSGIAWKSGATNYADSVKGRFAISRDNSKKSMYLQMNSLGTEDTALYYCTRRRASGDDTFYYFDYWGQGTLVTVSS
VL: EIVLTQSPATLSLSPGERATLSCRASQNVNTNLAWYQQRPGQSPRLLIYDASTRAAGLPARFSGSGSGTDFTLTISSLEPEDFAVYYCQQCTNWRYTFGQGTKLEIK
modifications: KPE33 VH Amino Acid Sequence; KPE33 VL Amino Acid Sequence

Columns and labels:
[1] = test system: Kp1131115 wild type and Kp1131115ΔwbbYZ strain; assay: FACS binding to Kp1131115 wild type and Kp1131115ΔwbbYZ; set-up: species or system Klebsiella pneumoniae; settings: Kp1131115ΔwbbYZ vs wild type
Source text: Klebsiella pneumoniae wbbYZ gene locus encodes D-Galactan II domain in LPS structure, which defines O1 serotype over O2.

[2] = test system: γδ T cell recruitment, K. pneumoniae Kp8045 infection; assay: flow cytometry of γδTCR+ T cells in lungs of infected mice; assay type: in vivo; settings: for early γδ T cell recruitment, prophylaxis: 1e4 CFU Kp8045, FIG. 14A; for γδ T cell recruitment, treatment 1 hour post infection: 1e4 CFU Kp8045, FIG. 14B
Description: TLR4 signaling has been implicated in the recruitment and activation of γδ T cells, a key cell population in the innate immune defense of the mucosa. In order to examine the effect of LPS-neutralizing and LPS-non-neutralizing anti-O1 antibodies on γδ T cell recruitment, the percent of γδTCR^+ T cells was measured in the lungs of mice treated with anti-O1 antibodies and infected with K. pneumoniae (1e4 CFU Kp8045).

[3] = test system: K. pneumoniae (1e4 CFU Kp8045); assay: survival of wild type and IL-17A−/− mice after lethal K. pneumoniae infection; assay type: in vivo, Klebsiella pneumoniae; settings: prophylactic treatment
Source text: γδ T cells are major producers of IL-17, which activates key antimicrobial pathways and the phagocytic function of neutrophils. […] Wild type and IL-17A−/− mice were prophylactically treated with c-IgG, 54H7, or KPE33 and infected with a lethal number of K. pneumoniae.

[4] = test system: K. pneumoniae capsule mutant strain 43816ΔcpsB Lux; assay: bioluminescent opsonophagocytic killing (OPK) assay with HL-60 cells; assay type: cell-based, Klebsiella pneumoniae; settings: for induction of OPK killing: FIG. 1C
Description: (§1) PBMC donors were ranked based on their binding titers as well as their SBA and OPK activity. OPK assays were performed as described with modifications (Wang, Q. et al. Target-Agnostic Identification of Functional Monoclonal Antibodies Against Klebsiella pneumoniae Multimeric MrkA Fimbrial Subunit J Infect Dis. 2016 Jun. 1; 213(11):1800-8). Briefly, log phase cultures of luminescent K. pneumoniae capsule mutant strain 43816ΔcpsB (43816ΔcpsB Lux) were diluted to ˜2×10^6 cells/ml. Bacteria, diluted baby rabbit serum providing complement (Cedarlane, pre-absorbed with Kp43816ΔcpsB, 1:10), dimethylformamide (DMF) differentiated HL-60 cells, and sera were mixed in 384-well plates and incubated at 37° C. for two hours with shaking (250 rpm). The relative light units (RLUs) were then measured using an Envision Multilabel plate reader (Perkin Elmer). The percentage of killing was determined by comparing RLU derived from assays with no antibodies to RLU obtained from human sera.
as §1, with “OPK” for “PBMC donors were ranked based on their binding titers as well as their SBA and OPK activity. OPK”, “al., J. Infect.” for “al. Target-Agnostic Identification of Functional Monoclonal Antibodies Against Klebsiella pneumoniae Multimeric MrkA Fimbrial Subunit J Infect”, “213:1800-8 (2016)).” for “2016 Jun. 1; 213(11):1800-8).”, “antibodies” for “sera”, “anti-K. pneumoniae mAbs and a negative control mAb.” for “human sera.”

[5] = test system: K. pneumoniae strain Kp4211 lux; assay: high throughput serum bactericidal assay (SBA), complement-dependent killing; assay type: cell-based, Klebsiella pneumoniae; settings: for complement-dependent killing in SBA: FIG. 1B
Description: Peripheral blood mononuclear cells (PBMC) and sera were separated from buffy coats from healthy blood donors (N=567). PMBC were stored in liquid nitrogen whereas the plasma was stored at 4° C. To identify Klebsiella pneumoniae immune donors, all the available sera were tested for binding to Kp43816 and Kp4211 (LPS-O1 serotype), as well as to the unencapsulated mutant strain Kp43816ΔcpsB and the double mutant Kp43816ΔcpsBΔwaaL. […] In addition, all available sera were tested for their bactericidal activity in the presence of complement using a high-throughput serum bactericidal assay (SBA assay). Overnight cultures of luminescent K. pneumoniae strain 4211 (lux) were diluted in Muller Hinton II media to make OD600 to be 0.003. Equal volume of sera, 4211 lux, and baby rabbit serum (Cedarlane) were mixed in 384 well plates and incubated at 37° C. for two hours with shaking (250 rpm). The relative light units (RLUs) were then measured using an Envision Multilabel plate reader (Perkin Elmer). The percentage of killing was determined by comparing RLU derived from assays with no antibodies to RLU obtained from human sera.
The susceptibility of the K. pneumoniae strain Kp4211 lux to serum and antibody dependent killing was measured by high throughput serum bactericidal assay (SBA). Overnight cultures of luminescent K. pneumoniae strain 4211 (lux) were diluted in Muller Hinton II media to make OD600 to be 0.003. Equal volume of antibodies, 4211 lux, and baby rabbit serum (Cedarlane) were mixed in 384 well plates and incubated at 37° C. for two hours with shaking (250 rpm). The relative light units (RLUs) were then measured using an Envision Multilabel plate reader (Perkin Elmer). The percentage of killing was determined by comparing RLU derived from assays with no antibodies to RLU obtained from anti-K. pneumoniae mAbs and a negative control mAb.

LPS (O1) = assay: LPS neutralization assay, RAW264.7-lux NF-κB luciferase reporter; assay type: cell-based, murine
Description: LPS neutralization was assayed by utilizing a murine RAW264.7 macrophage cell line carrying a firefly luciferase reporter gene under the control of an NF-κB-responsive promoter (RAW264.7-lux). Serially diluted antibody stocks were mixed with LPS in a 1:1 ratio and incubated at 4° C. for 1 hr. Antibody/LPS mixture was then diluted 1:10 into assay plates containing pre-seeded RAW264.7-lux cells (5e3 cells/well), which were then placed at 37° C./5% CO2 for 2.5 hours. Following incubations, Steady Glo (Promega) was then added to each well and incubated for another 20 min protected from light. The relative light units (RLUs) were then measured using an Envision Multilabel plate reader (Perkin Elmer). The percentage of inhibition was determined by comparing RLU derived from assays with no antibodies to RLU obtained from anti-K. pneumoniae mAbs and a negative control mAb. Activation of TLR4 receptors by bacterial LPS leads to downstream activation of the NF-κB transcriptional regulator. A decrease in induction of NF-κB-responsive luciferase activity was used to quantify LPS neutralization activity by LPS mAbs.

purified O1 LPS = assay: ELISA binding to purified O1 LPS; set-up: species or system Klebsiella pneumoniae; settings: FIG. 1A
Description: Binding to purified O1 LPS was assayed by standard ELISA method. Briefly, ELISA plates (Nunc MaxiSorp) were coated with purified O1 LPS in PBS, pH 7.2, overnight at 4 C, followed by blocking the plates with PBS supplemented with 1% BSA (PBS-B). The coated plates were incubated with series dilutions of monoclonal antibodies for 1 h at room temperature. The plates were then washed with PBS containing 0.1% Tween-20 (PBS-T) before HRP-conjugated anti-human secondary antibodies were added for 1 hour followed by TMB TMB (3,3′,5,5′-Tetrametheylbenzidine) substrates. The absorbance of 450 nm was measured by microplate reader (Molecular Devices) and the data were plotted with Prism software.

Molecule	effect of wbbYZ gene knockout on binding [1]	early γδ T cell recruitment, prophylaxis [2]	γδ T cell recruitment, treatment 1 hour post infection [2]	survival of IL-17A−/− mice compared to wild type mice [3]	D Capsule OPK IC50 [4] [ng/mL]	induction of OPK killing [4]	SBA Kp4211lux IC50 [5] [ng/mL]	complement-dependent killing in SBA [5]	LPS Neut (O1) IC50 (LPS (O1)) [ng/mL]	LPS neutralization (LPS (O1))	binding to purified O1 LPS (purified O1 LPS)	complement-dependent killing (SBA) in primary screening ([5]; strain Kp4211 (LPS-O1))
B1	completely abolished the binding	inhibited	did not inhibit recruitment	No difference in survival	2.5	induced OPK killing	5.2	kill K. pneumoniae via complement-dependent killing	<0.1	neutralized LPS	bound to purified O1 LPS	–
B2	completely abolished the binding	not	did not inhibit recruitment	significant reduction in survival	2.5	induced OPK killing	64	kill K. pneumoniae via complement-dependent killing	–	did not	bound to purified O1 LPS	mediate complement-dependent killing
